Data: patent publication US20240325486A1 (TUFTS MEDICAL CENTER, published 2024)
Non-standard residues stand in square brackets, D forms with d. No end group written: not given here. Tic = O=C(O)[C@@H]1Cc2ccccc2CN1

How the values were obtained:
[1] = target: CMKLR1 (recombinant, species not given); test: cell-based or functional assay
[2] = target: CMKLR1 (recombinant, species not given); test: cell-based or functional assay; remark: listed apart in the source

Binder	CMKLR1 canonical Gαi signal transduction, EC50 (BSA) (no wash) [1]	CMKLR1 canonical Gαi signal transduction, EC50 (BSA) (wash × 3) [1]	CMKLR1 canonical Gαi signal transduction, EC50 (no wash) [1]	CMKLR1 canonical Gαi signal transduction, EC50 (wash × 3) [1]	β-Arrestin recruitment, EC50 [2]	β-Arrestin recruitment, Max Efficacy (% 10 µM s-Stable chem9) [2]
[dY]FLP[dS]QF[dA][Tic]S (also: cholesterol lipid tail, linker and attachment not given here) [Cholesterol lipidated stable chemerin 9 analog]	108 nM	13500 nM	84.5 nM	445 nM	131 nM	149%
[dY]FLP[dS]QF[dA][Tic]S [s-Stable Chem (soluble stable chemerin peptide)]	5.1 nM	–	35.2 nM	–	31.9 nM	100%
[dY]FLP[dS]QF[dA][Tic]S (also: C18:3 (linolenic acid) lipid tail, linker and attachment not given here) [C18:3 lipidated stable chemerin 9 analog]	73.3 nM	–	45.7 nM	350 nM	181 nM	110%
[dY]FLP[dS]QF[dA][Tic]S (also: C18:1 lipid tail (which C18:1 acid not given here), linker and attachment not given here) [C18:1 lipidated stable chemerin 9 analog]	12.7 nM	2860 nM	4.7 nM	26.4 nM	17.4 nM	160%
[dY]FLP[dS]QF[dA][Tic]S (also: C14:1 lipid tail, linker and attachment not given here) [C14:1 lipidated stable chemerin 9 analog]	26.2 nM	1820 nM	9.3 nM	100 nM	51.9 nM	124%
[dY]FLP[dS]QF[dA][Tic]S (also: C16 (palmitic acid) lipid tail, linker and attachment not given here) [C16 lipidated stable chemerin 9 analog]	6.4 nM	520 nM	2.7 nM	18.6 nM	3.23 nM	165%
[dY]FLP[dS]QF[dA][Tic]S (also: C10 lipid tail, linker and attachment not given here) [C10 lipidated stable chemerin 9 analog]	17.8 nM	–	17.8 nM	–	23.1 nM	98.3%
[dY]FLP[dS]QF[dA][Tic]S (also: C16:1 lipid tail, linker and attachment not given here) [C16:1 lipidated stable chemerin 9 analog]	29.5 nM	3140 nM	12 nM	42.2 nM	80.8 nM	154%
[dY]FLP[dS]QF[dA][Tic]S (also: C4 lipid tail, linker and attachment not given here) [C4 lipidated stable chemerin 9 analog]	11 nM	–	79.3 nM	–	223 nM	89.7%
